Target: HLA-A*02:01 (Homo sapiens, UniProt P04439, D140Y/D185E/D98H/E176V/E277Q/G131W/G231S/I119V/I121R/I166T/I218V/L300P/L318F/N151K/N90K/P208A/P217A/Q86G/Q94H/R138H/R169H/T345S)
Assay: MHC binding assay: UV-ligand exchange and β2m ELISA (peptide exchange yield, Table 7)
Conditions: binding of HLA-class I restricted peptides to HLA-A*02:01, UV-ligand exchange
Method in brief: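 Peptide-MHC complexes made by UV-mediated exchange of a cleavable ligand for test peptide; exchange yield measured by ELISA detecting β2m of stabilized complexes captured on streptavidin, using refolded HLA-A*02:01/MLA-001 monomer standards (15-500 ng/ml). Samples diluted 100-fold; HRP anti-β2m, TMB, absorbance 450 nm.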

| Substance | Peptide exchange (MHC class I binding score, peptide exchange yield) |
| --- | --- |
| 254 (ALGDKFLLRV; listed as Homo sapiens) [compound 254] | ++ (≥20% = ++) |
| 260 (ALNESLVEC; listed as Homo sapiens) [compound 260] | +++ (≥50% = +++) |
| 178 (SLVSWQLLL; listed as Homo sapiens) [compound 178] | ++++ (≥75% = ++++) |
| 81 (ILAEEPIYI; listed as Homo sapiens) [compound 81] | ++ (≥20% = ++) |
| 86 (SLFSNIESV; listed as Homo sapiens) [compound 86] | +++ (≥50% = +++) |
| 37 (QIVELIEKI; listed as Homo sapiens) [compound 37] | ++ (≥20% = ++) |
| 11 (LLDPKTIFL; listed as Homo sapiens) [compound 11] | +++ (≥50% = +++) |
| 132 (ALLNNVIEV; listed as Homo sapiens) [compound 132] | +++ (≥50% = +++) |
| 70 (GLTEKTVLV; listed as Homo sapiens) [compound 70] | ++ (≥20% = ++) |
| 128 (SILTNISEV; listed as Homo sapiens) [compound 128] | ++ (≥20% = ++) |
| 42 (KQMSISTGL; listed as Homo sapiens) [compound 42] | ++ (≥20% = ++) |
| 257 (KLIDHQGLYL; listed as Homo sapiens) [compound 257] | +++ (≥50% = +++) |
| 183 (ALSYILPYL; listed as Homo sapiens) [compound 183] | +++ (≥50% = +++) |
| 112 (ILAQDVAQL; listed as Homo sapiens) [compound 112] | +++ (≥50% = +++) |
| 282 (SLYALHVKA; listed as Homo sapiens) [compound 282] | ++ (≥20% = ++) |
| 180 (RLYEEEIRI; listed as Homo sapiens) [compound 180] | +++ (≥50% = +++) |
| 7 (ALLQALMEL; listed as Homo sapiens) [compound 7] | +++ (≥50% = +++) |
| 116 (ALLSSVAEA; listed as Homo sapiens) [compound 116] | ++ (≥20% = ++) |
| 171 (LLLLDVPTA; listed as Homo sapiens) [compound 171] | ++ (≥20% = ++) |
| 198 (ILTNKVVSV; listed as Homo sapiens) [compound 198] | ++ (≥20% = ++) |
| 259 (GPGIFPPPPPQP; listed as Homo sapiens) [compound 259] | + (≥10% = +) |

| Substance | Peptide exchange (MHC class I binding score, peptide exchange yield) |
| --- | --- |
| 114 (LLFPSDVQTL; listed as Homo sapiens) [compound 114] | ++ (≥20% = ++) |
| 253 (KLLAVIHEL; listed as Homo sapiens) [compound 253] | +++ (≥50% = +++) |
| 173 (RLIDIYKNV; listed as Homo sapiens) [compound 173] | +++ (≥50% = +++) |
| 123 (QTAPEEAFIKL; listed as Homo sapiens) [compound 123] | + (≥10% = +) |
| 60 (YLFSQGLQGL; listed as Homo sapiens) [compound 60] | +++ (≥50% = +++) |
| 284 (KLMDPGSLPPL; listed as Homo sapiens) [compound 284] | ++ (≥20% = ++) |
| 85 (KLLDKPEQFL; listed as Homo sapiens) [compound 85] | ++ (≥20% = ++) |
| 252 (SLMEKNQSL; listed as Homo sapiens) [compound 252] | ++ (≥20% = ++) |
| 88 (LLLPLELSLA; listed as Homo sapiens) [compound 88] | +++ (≥50% = +++) |
| 155 (TLDSYLKAV; listed as Homo sapiens) [compound 155] | ++ (≥20% = ++) |
| 214 (ALFETLIQL; listed as Homo sapiens) [compound 214] | +++ (≥50% = +++) |
| 76 (FTAEFLEKV; listed as Homo sapiens) [compound 76] | +++ (≥50% = +++) |
| 66 (AMFPDTIPRV; listed as Homo sapiens) [compound 66] | ++ (≥20% = ++) |
| 174 (ALYSGDLHAA; listed as Homo sapiens) [compound 174] | ++ (≥20% = ++) |
| 223 (ALHPVQFYL; listed as Homo sapiens) [compound 223] | +++ (≥50% = +++) |
| 89 (SLAETIFIV; listed as Homo sapiens) [compound 89] | +++ (≥50% = +++) |
| 77 (ALYGNVQQV; listed as Homo sapiens) [compound 77] | +++ (≥50% = +++) |
| 181 (LLWAPTAQA; listed as Homo sapiens) [compound 181] | +++ (≥50% = +++) |
| 22 (LMYPYIYHV; listed as Homo sapiens) [compound 22] | +++ (≥50% = +++) |
| 150 (VLLDMVHSL; listed as Homo sapiens) [compound 150] | +++ (≥50% = +++) |
| 134 (SLYKSFLQL; listed as Homo sapiens) [compound 134] | ++ (≥20% = ++) |

| Substance | Peptide exchange (MHC class I binding score, peptide exchange yield) |
| --- | --- |
| 142 (LLDAAHASI; listed as Homo sapiens) [compound 142] | ++ (≥20% = ++) |
| 26 (VLDGKVAVV; listed as Homo sapiens) [compound 26] | +++ (≥50% = +++) |
| 98 (FVQEKIPEL; listed as Homo sapiens) [compound 98] | +++ (≥50% = +++) |
| 164 (MLIIRVPSV; listed as Homo sapiens) [compound 164] | +++ (≥50% = +++) |
| 144 (FLISQTPLL; listed as Homo sapiens) [compound 144] | +++ (≥50% = +++) |
| 213 (ILAVDGVLSV; listed as Homo sapiens) [compound 213] | +++ (≥50% = +++) |
| 62 (SLVENIHVL; listed as Homo sapiens) [compound 62] | +++ (≥50% = +++) |
| 235 (SLLNQPKAV; listed as Homo sapiens) [compound 235] | ++ (≥20% = ++) |
| 100 (ALQSFEFRV; listed as Homo sapiens) [compound 100] | +++ (≥50% = +++) |
| 162 (GLLGNLLTSL; listed as Homo sapiens) [compound 162] | +++ (≥50% = +++) |
| 35 (VIIKGLEEI; listed as Homo sapiens) [compound 35] | ++ (≥20% = ++) |
| 250 (LMQDSRLYL; listed as Homo sapiens) [compound 250] | +++ (≥50% = +++) |
| 210 (GLAGDNIYL; listed as Homo sapiens) [compound 210] | +++ (≥50% = +++) |
| 65 (SLSEKSPEV; listed as Homo sapiens) [compound 65] | ++ (≥20% = ++) |
| 130 (QLYGSAITL; listed as Homo sapiens) [compound 130] | +++ (≥50% = +++) |
| 58 (HLLGEGAFAQV; listed as Homo sapiens) [compound 58] | +++ (≥50% = +++) |
| 53 (AQHLSTLLL; listed as Homo sapiens) [compound 53] | + (≥10% = +) |
| 24 (KVWSDVTPL; listed as Homo sapiens) [compound 24] | +++ (≥50% = +++) |
| 59 (ALADGIKSFLL; listed as Homo sapiens) [compound 59] | +++ (≥50% = +++) |
| 96 (ALDTTRHEL; listed as Homo sapiens) [compound 96] | ++ (≥20% = ++) |
